Experimental findings from US20260034233A1 (SUNMED THERAPEUTIC, published 2026) are described below.

The target in experiment [1] is T1, human Galectin-3 (human, UniProt P17931 2-250, limits assumed).
T1 construct: also called Human GAL-3; hGal-3
The experiment can be described thus: ELISA on human Galectin-3. (ELISA stands for enzyme-linked immunosorbent assay.)

Another experiment concerns the target T2, Mouse GAL-3 (mouse, UniProt P16110 2-264, limits assumed).
T2 construct: also called mouse Galectin-3
The experiment can be described thus: SPR.

In the next experiment the target is T3, Rat GAL-3 (rat, UniProt P08699 2-262, limits assumed).
T3 construct: also called rat Galectin-3
T3 sequence (looked up): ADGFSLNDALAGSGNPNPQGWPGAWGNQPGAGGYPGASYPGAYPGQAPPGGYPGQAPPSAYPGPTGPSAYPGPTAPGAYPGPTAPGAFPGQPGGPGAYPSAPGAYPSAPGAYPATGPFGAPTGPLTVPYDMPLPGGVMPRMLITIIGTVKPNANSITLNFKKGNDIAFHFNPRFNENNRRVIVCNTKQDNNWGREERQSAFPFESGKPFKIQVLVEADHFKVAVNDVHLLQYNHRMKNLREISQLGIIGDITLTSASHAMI
The experiment can be described thus: SPR.

Experiment [2] deals with T1, human Galectin-3. The experiment is described as follows: SPR. In general terms: In SPR one partner is held on a chip, and binding of the other changes the refractive index at the surface.
The next experiment deals with T4, Gal3-e.
T4 construct: also called Galectin3-e; Gal-3 peptide
T4 peptide: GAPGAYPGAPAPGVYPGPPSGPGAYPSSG
The experiment can be described thus: size exclusion chromatography of the mixture. As to the method: For X-ray diffraction, first we developed a homogeneous Gal3-e-Fab complex through Size Exclusion Chromatography (SEC) and analyzed the complex through crystallization screening and optimization. However, no diffraction patterns but only large block- and rod-shaped crystals were observed by multi-rounds of optimization. Screened commercial kits included crystal screens, structure screens, Index, JCSG plus, PEG/Ion1&2, ProPlex screens, and additive screens.
Excess Gal3-e were incubated with the Fab on ice for 30 minutes. After the incubation, Gal3-e-Fab complex was isolated from the mixture using SEC (Column: Superdex 75 increase 10/300).
Background: SEC sorts molecules by how far they enter the pores of the column.

T1 sequence (P17931 2-250 limits assumed): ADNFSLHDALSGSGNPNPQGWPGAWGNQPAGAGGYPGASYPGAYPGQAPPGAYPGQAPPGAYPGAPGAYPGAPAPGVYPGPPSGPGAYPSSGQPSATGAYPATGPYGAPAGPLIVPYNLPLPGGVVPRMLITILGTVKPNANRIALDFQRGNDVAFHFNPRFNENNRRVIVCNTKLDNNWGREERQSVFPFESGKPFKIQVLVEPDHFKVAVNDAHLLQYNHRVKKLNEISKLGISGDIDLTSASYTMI
T2 sequence (P16110 2-264 limits assumed): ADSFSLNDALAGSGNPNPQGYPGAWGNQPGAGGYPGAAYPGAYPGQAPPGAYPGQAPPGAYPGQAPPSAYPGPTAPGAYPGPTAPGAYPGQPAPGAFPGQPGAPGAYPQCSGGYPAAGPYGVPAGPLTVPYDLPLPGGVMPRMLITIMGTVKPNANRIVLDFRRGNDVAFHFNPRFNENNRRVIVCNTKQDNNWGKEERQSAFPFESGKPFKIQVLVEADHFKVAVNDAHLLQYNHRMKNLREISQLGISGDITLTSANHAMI

B1: SIF002 (antibody, V domains shown)
VH: EVQLLESGGGLVQPGGSLRLSCAASGFTFSRFWMSWVRQAPGKGLEWVSEISPDSNTIDLTPSLKDRFTISRDNSKNTLYLQMNSLRAEDTAVYYCAKPYYGYYWGQGTLVTVSS
VL: DIVMTQSPDSLAVSLGERATMNCRSSQSLFSSTNQKNYLTWYQQKPGQPPKLLIYWASSRESGVPDRFSGSGSGTDFTLTISSLQAEDVAVYYCQNDYTSPFTFGQGTRLEIK
For the molecule B1, in the experiment with human Galectin-3 [1], the binding result was “binds”.

B2: SIF001 (antibody, V domains shown)
VH: QVQLVQSGSELKKPGASVKVSCKASGYTFTNYGMNWVRQAPGQGLEWMGWINTYTGEPTYADDFKGRFVFSLDTSVSTAYLQISSLKNEDMAVYFCARYAMDYWGQGTLVTVSS
VL: EAVVTQEPSLTVSPGGTVTLTCRSSTGAVTTSNYANWVQQKPGQAFTGLIGGTSNRAPGTPARFSGSLLGDKAALTLLGAQPEDEAEYFCALWYSTHYVFGGGTKLTVL
notes: Humanized monoclonal antibody raised against human GAL-3; also called SIF001 Ab; SF001
As a reminder, the Kd is the equilibrium constant for the complex coming apart. Consider B2, for which the Kd with Mouse GAL-3 came out at 10.9 nM; with Rat GAL-3, 11.7 nM; in the experiment with human Galectin-3 [2], 71.5 nM.

B3: Fab of the SIF001 antibody (Fab, V domains shown)
VH: B2 VH
VL: B2 VL
In the case of B3, in the experiment with Gal3-e, the binding result is “binds”.
